Assays:
[1] = target: T1, 2PT-F508del-CFTR expressed in BHK-21 cells (human, UniProt P13569 1-1480, I539T; S492P; A534P; F508del); assay: flow cytometry on permeabilised BHK-21 cells expressing 2PT-F508del-CFTR, anti-tag antibody and Alexa Fluor 488 secondary
T1 construct: Full-length F508del CFTR stabilized by the three point mutations; permeabilized cells in flow cytometry
Text: (§1) Graph depicts one representative of at least three independent experiments. (FIG. 4F) Average median fluorescence (fold over negative control) for each of the three representative nanobodies as illustrated in (FIG. 4D) and (FIG. 4E). Quantification of at least 3 independent experiments (±SEM). (g) Immunoblot of CFTR from solubilized BHK-21 cells pulled-down with His-tagged nanobodies, including a non-CFTR nanobody as a control. Eluted nanobodies-CFTR complexes were separated by SDS-PAGE and presence of CFTR was detected with mAb 596 antibody after immunoblotting. Arrows indicate the mature (band C) and immature (band B) forms of CFTR. Representative of at least 3 independent experiments. (FIG. 4H) Flow cytometry analysis of nanobodies T2a, T8 and G3a on BHK-21 cells expressing 2PT-F508del showing increased labelling for T2a and G3a, but not T8. (FIG. 4I) Quantification of data illustrated in […]. Average of 3 independent experiments (±SEM).
Parental BHK-21 cells (ATCC; CCL-10) and cells stably overexpressing human wt-CFTR^{[43,44,47]} or 2PT-F508del-CFTR, as described above, were permeabilized with 0.01% n-Dodecyl-β-D-Maltopyranoside β-DDM—Inalco) at least for 2 h on ice. In the meantime, cells were incubated with 50 μg/ml nanobodies and DRAQ7 (0.3 μM—Biostatus) to monitor the permeabilization state. Nanobody binding was detected by using His-tag specific antibody (Invitrogen, catalogue number MA1-135, 1 μg/ml) or Myc-tag specific antibody (Invitrogen, catalogue number 13-2500, 2 μg/ml) and then anti-mouse-Alexa Fluor 488 (Invitrogen, catalogue number A11001, 1.3 μg/ml) at least for 30 min on ice. Cells were washed one time between each step by centrifugation (200×g for 5 min at 4° C.). All incubations (100 μl) and washes (1.5 ml) were performed in PBS with 6% fetal bovine serum (FBS) and 0.01%13-DDM on ice. Cells fluorescence was measured with Gallios Flow Cytometer (Beckman Coulter). Data were analyzed with Kaluza software.

[2] = target: T2, Purified human wt-CFTR (His10-SUMO*-CFTRFLAG-EGFP), PKA phosphorylated (human, UniProt P13569 1-1480, PKA phosphorylated (sites not given)); assay: ELISA, purified wt-CFTR immobilised on nickel-coated plate, nanobody titrated
T2 construct: Expressed in HEK293 cell line D165, purified on NiNTA in DMNG detergent; used for the full-length CFTR ELISA and the ATPase assays; also called FL-CFTR; full-length CFTR; not shown: N-terminal His10-SUMO* tag; FLAG tag and enhanced green fluorescent protein (EGFP)
Text: as §1, with “Quantification” for “Graph depicts one representative of at least three independent experiments. (FIG. 4F) Average median fluorescence (fold over negative control) for each of the three representative nanobodies as illustrated in (FIG. 4D) and (FIG. 4E). Quantification”
(§2) Strep-Tactin XT coated microplate (iba Life Science) was coated overnight at 4° C. with Twin-Strep-tagged nanobodies (5 μg/ml). […] CFTR binding was detected with monoclonal antibodies L12B4, MM13, 154, 660, 570, 596 specific to CFTR obtained from the CFTR Antibody Distribution Program (http://cftrantibodies.web.unc.edu/available-antibodies)46 and then anti-mouse-HRP antibody (Millipore, catalogue number: AP308P, 0.5 μg/ml) for 1 h 30 min at 4° C. […] Nanobody binding was detected with Myc-tag specific antibody (Sigma, catalogue number: C3956, 0.5 μg/ml) and then anti-rabbit-HRP antibody (Cell Signaling, catalogue number: 7074S, 1:1000 dilution) for 1 h 30 min at 4° C. […]

[3] = target: T2, Purified human wt-CFTR …; assay: ELISA, Twin-Strep nanobody immobilised, concentration of purified wt-CFTR varied
Text: as §1, with “Quantification” for “Graph depicts one representative of at least three independent experiments. (FIG. 4F) Average median fluorescence (fold over negative control) for each of the three representative nanobodies as illustrated in (FIG. 4D) and (FIG. 4E). Quantification”
as §2

T2 sequence (P13569 whole entry): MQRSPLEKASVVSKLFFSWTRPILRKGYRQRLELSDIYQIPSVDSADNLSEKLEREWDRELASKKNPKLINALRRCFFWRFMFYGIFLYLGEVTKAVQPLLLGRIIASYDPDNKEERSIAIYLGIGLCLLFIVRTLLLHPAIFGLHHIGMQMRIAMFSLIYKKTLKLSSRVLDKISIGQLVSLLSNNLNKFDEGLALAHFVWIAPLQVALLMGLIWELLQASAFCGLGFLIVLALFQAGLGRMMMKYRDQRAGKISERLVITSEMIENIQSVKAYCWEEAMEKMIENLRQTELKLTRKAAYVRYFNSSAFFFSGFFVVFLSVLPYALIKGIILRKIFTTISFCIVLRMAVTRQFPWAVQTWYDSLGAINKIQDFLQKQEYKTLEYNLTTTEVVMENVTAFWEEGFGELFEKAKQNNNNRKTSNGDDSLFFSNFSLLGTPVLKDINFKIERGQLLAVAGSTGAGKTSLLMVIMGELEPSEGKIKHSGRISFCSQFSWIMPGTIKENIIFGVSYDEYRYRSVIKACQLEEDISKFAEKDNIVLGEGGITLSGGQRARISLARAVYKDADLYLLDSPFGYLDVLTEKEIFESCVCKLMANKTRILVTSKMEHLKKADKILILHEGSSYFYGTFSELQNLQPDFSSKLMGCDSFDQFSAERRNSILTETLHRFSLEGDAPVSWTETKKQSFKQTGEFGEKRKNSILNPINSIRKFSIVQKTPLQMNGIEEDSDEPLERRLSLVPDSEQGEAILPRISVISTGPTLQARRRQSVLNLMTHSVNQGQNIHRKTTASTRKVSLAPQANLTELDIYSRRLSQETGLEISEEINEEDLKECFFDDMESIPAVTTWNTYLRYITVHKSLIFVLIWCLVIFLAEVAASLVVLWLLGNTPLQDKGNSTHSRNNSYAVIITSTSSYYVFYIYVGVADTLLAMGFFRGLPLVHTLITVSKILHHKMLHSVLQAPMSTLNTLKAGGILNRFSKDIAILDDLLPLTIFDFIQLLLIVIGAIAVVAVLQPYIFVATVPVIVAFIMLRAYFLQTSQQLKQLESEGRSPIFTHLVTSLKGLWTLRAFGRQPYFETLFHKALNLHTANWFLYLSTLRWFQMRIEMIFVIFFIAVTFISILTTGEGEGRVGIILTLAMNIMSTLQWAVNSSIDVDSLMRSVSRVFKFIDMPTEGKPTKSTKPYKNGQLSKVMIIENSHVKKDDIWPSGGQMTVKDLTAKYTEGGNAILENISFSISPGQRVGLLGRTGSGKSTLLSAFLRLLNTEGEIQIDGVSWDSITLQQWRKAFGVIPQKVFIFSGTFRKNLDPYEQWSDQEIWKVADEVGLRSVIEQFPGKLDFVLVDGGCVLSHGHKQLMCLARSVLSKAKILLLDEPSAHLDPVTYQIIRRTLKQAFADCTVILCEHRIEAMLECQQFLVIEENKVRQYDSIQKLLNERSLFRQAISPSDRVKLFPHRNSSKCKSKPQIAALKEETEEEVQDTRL
T1 sequence (P13569 other isoform, or with tags, fused parts or gaps I539T/S492P/A534P/F508del): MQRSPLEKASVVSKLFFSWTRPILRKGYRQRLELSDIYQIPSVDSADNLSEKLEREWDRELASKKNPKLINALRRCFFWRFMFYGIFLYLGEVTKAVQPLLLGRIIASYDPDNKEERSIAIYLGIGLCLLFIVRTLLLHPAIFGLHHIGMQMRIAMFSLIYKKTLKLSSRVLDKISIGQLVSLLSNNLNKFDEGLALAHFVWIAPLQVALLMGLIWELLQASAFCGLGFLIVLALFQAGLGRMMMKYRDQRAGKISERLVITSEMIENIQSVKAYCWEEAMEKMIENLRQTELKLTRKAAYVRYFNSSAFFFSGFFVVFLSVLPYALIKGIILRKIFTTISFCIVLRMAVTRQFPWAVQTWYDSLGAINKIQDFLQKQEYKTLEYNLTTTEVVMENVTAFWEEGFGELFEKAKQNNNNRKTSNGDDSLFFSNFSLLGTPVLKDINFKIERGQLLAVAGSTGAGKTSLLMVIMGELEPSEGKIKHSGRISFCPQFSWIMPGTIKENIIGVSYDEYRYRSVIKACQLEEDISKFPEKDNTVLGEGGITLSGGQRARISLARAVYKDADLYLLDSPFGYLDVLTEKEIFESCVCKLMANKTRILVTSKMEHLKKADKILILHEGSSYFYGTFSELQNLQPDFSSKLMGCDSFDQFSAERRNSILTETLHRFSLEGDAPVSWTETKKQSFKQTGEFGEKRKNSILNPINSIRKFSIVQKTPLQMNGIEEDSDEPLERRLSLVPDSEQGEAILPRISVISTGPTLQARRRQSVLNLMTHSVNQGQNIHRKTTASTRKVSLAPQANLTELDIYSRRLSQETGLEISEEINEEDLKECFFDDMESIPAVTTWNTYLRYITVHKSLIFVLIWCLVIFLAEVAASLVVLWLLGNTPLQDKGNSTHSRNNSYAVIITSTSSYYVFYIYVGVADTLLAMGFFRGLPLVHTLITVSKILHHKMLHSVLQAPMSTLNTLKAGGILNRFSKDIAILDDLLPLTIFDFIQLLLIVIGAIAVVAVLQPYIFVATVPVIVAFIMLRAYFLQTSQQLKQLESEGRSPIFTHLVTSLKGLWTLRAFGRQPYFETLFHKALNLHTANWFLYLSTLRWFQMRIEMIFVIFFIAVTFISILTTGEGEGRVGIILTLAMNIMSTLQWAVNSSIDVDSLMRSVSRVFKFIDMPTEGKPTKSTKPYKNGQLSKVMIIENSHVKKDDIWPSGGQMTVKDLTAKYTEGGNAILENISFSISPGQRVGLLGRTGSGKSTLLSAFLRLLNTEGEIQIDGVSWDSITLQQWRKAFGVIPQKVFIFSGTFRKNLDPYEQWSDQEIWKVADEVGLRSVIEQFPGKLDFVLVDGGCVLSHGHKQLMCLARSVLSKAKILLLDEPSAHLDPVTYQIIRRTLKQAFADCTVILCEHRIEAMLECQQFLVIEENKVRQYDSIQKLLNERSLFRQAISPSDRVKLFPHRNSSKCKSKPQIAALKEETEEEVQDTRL

B1: Nanobody T2a (VHH, not shown: small tags and cut ends)
VHH: QVQLQESGGGLVQAGGSLRLSCAASGSIFRIDAMGWYRQAPGKQRELVAHSTSGGSTDYADSVKGRFTISRDNAKNTVYLQMNSLKPEDTAVYYCNADVRTRWYASNNYWGQGTQVTVSS
notes: Llama nanobody; also called Nb T2a; T2a Nb
binding result [1]: binds
EC50 (read off the curve) [2]: ~200 nM
EC50 (read off the curve) [3]: ~3 nM

B2: Nanobody T8 (VHH, not shown: small tags and cut ends)
VHH: QVQLQESGGGLVQPGGSLRLSCAASGSTSSINAMGWYRQAPGKQREPVAISSSGGDTRYAEPVKGRFTISRDNAQNKVYLQMNSLKPEDTAVYYCWLNWGRTSVNSWGQGTQVTVSS
notes: Llama nanobody; also called Nb T8; T8 Nb
binding result [1]: no binding
EC50 (read off the curve) [2]: ~300 nM
EC50 (read off the curve) [3]: ~2 nM
